In this experiment the target is Recombinant platelet-derived growth factor-BB (UniProt P01127). Put plainly: SPR. In general terms: SPR reads the build-up and loss of mass on a sensor chip optically.
UniProt P01127, sequence (P01127 82-190): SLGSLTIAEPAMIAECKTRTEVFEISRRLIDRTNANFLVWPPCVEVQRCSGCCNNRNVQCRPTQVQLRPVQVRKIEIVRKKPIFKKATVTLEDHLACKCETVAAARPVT
Usually Kd stands for the constant that tells how readily two partners part at equilibrium. With “Recombinant fibronectin type III repeat 1 (domain or fragment)”, the dissociation constant (Kd) came out at 103 nM.

Take “Recombinant fibronectin type III repeats 13–14 (domain or fragment)”: the Kd is 9 nM. On to “Recombinant fibronectin variable domain (domain or fragment)”, for which the Kd came to 141 nM.
